Here are results for 15 molecules from US20150232562A1 (Ablynx, published 2015).

The target in assay [1] is T1, recombinant human ErbB2/Fc chimera (human, UniProt P04626 23-652).
T1 construct: bought from R&D Systems; also called rhErbB2-Fc; rhErb2-Fc; Fc part of the bought chimera not given; not described
Put plainly: SPR (Biacore 3000), purified Nanobody over immobilised rhErbB2-Fc. For orientation: SPR reads the build-up and loss of mass on a sensor chip optically.

Assay [2] has as its target T2, Epidermal Growth Factor Receptor 2 (HER2) (human, UniProt P04626 23-1255). The assay is described as follows: cell-based or functional assay.
In assay [3] the target is T1, recombinant human ErbB2/Fc chimera. The assay is described as follows: SPR (Biacore 3000), periplasmic extract over immobilised rhErbB2-Fc.
The target is the same in assay [4]. Put plainly: SPR (Biacore T100), Nanobody over immobilised rhErbB2-Fc.
The target in assay [5] is T3, extracellular domain of HER2 (HER2-ECD), Flag- and polyhistidine-tagged (human, UniProt P04626 23-652).
T3 construct: extracellular domain; made in HEK293T cells, purified by IMAC and SEC; also called ErbB2 ECD; not shown: N-terminal Flag tag after the Ig-kappa leader; C-terminal polyhistidine tag
The assay is described as follows: SPR, 100 nM HER2-ECD over immobilised Nanobody (about 90 RU).

Assay [6] concerns the target T3, extracellular domain of HER2 …. The assay is described as follows: SPR, 1000 nM HER2-ECD over immobilised Nanobody (about 90 RU).
Assay [7] has the same target. Put plainly: SPR, HER2-ECD over immobilised Nanobodies.
Assay [8] addresses T1, recombinant human ErbB2/Fc chimera. Put plainly: ELISA, coated ErbB2/Fc. For orientation: ELISA stands for enzyme-linked immunosorbent assay.
The target of assay [9] is T2, Epidermal Growth Factor Receptor 2 …. The assay is described as follows: flow cytometry on SKBR3 cells, periplasmic extract. In general terms: In flow cytometry, cells or beads pass a laser one at a time.
The target in assay [10] is T3, extracellular domain of HER2 …. Put plainly: SPR, 100 nM HER2-ECD over immobilised Nanobody; row label prints 5F7, table title, text and FIG. 19 say 47D5.
Assay [11] shares this target. Put plainly: SPR, 1000 nM HER2-ECD over immobilised Nanobody; row label prints 5F7, table title, text and FIG. 19 say 47D5.

Residue numbers refer to the chain shown, from its start.

B1: 27A3-35GS-2D3 (bispecific antibody)
chain: EVQLVESGGGLVQAGGSLSLSCVASGRFFSTRVMAWYRQTPGKQREFVASMRGSGSTNYADSVRGRFAISRDNAKNTVYLQMNTLKPEDTAVYYCRDINEDQWGQGTQVTVSSGGGGSGGGGSGGGGSGGGGSGGGGSGGGGSGGGGSEVQLVESGGSLVQPGGSLRLSCAASGFTFDDYAMSWVRQVPGKGLEWVSSINWSGTHTDYADSVKGRFTISRNNANNTLYLQMNSLKSEDTAVYYCAKNWRDAGTTWFEKSGSAGQGTQVTVSS
notes: biparatopic Nanobody; C-term myc-His6 tag
As a reminder, the koff is the rate constant with which the complex falls apart. As to B1, the off-rate (koff) in [1] is approximately 0.0001 s⁻¹.

B2: 2A4 (VHH)
VHH: EVQLVESGGGLVQPGGSLRLSCAASGFIFDDYAMSWVRQAPGKGLEWVSAINWSGSHRNYADSVKGRFTISRDNAKKTVYLQMNSLQSEDTAVYYCGTGWQSTTKNQGYWGQGTQVTVSS
notes: C-term myc-His6 tag
For B2, the “inhibition of SKBR3 cell proliferation ([3H]-thymidine), 50 nM Nanobody” value (from here on “inhibition of SKBR3 cell proliferation”) in [2] was approximately 30%. The koff in assay [3] was 0.00205 s⁻¹.

B3: 2A5 (VHH)
VHH: EVQLVESGGGLVQPGGSLRLSCATSGFTFDDYAMTWVRQAPGKGLEWVSSINWSGTHTDYTDSVKGRFTISRNNANNTLYLQMNSLKSEDTAVYYCAKNWGDAGTTWFEKSGSAGQGTQVTVSS
notes: C-term myc-His6 tag
As for B3, the “inhibition of SKBR3 cell proliferation” value in assay [2] was approximately 18%. The dissociation rate constant (koff) in assay [3] was found to be 0.00142 s⁻¹.

B4: 2D3 (VHH)
VHH: B3 VHH with G10S, T24A, T35S, A40V, T61A, G101R
notes: C-term myc-His6 tag; also called NB-2D3; Nb-2D3
In general, Kd refers to the equilibrium constant for the complex coming apart. By kon is commonly meant the second-order rate constant of association. For B4, in [2], the “inhibition of SKBR3 cell proliferation” value was approximately 30%. In addition, the Kd in [4] was 1.09 nM. The dissociation rate constant (koff) in assay [4] was 0.00148 s⁻¹; in [5], 0.0021 s⁻¹; in assay [1] it was approximately 0.001 s⁻¹; in assay [6] it was 0.00151 s⁻¹. In addition, the kon in assay [4] was 1.36e+06 M⁻¹ s⁻¹.

B5: 27D1-35GS-2D3 (bispecific antibody)
chain: EVQLVESGGGLVQPGGSLRLSCVASGFSLDDYGMTWVRQAPGKGLEWVSSINWSGTHTDYADSVKGRFTISRDNAKNTLFLQMNSLTPEDTAVYYCNQGWKILPAERRGHGTQVTVSSGGGGSGGGGSGGGGSGGGGSGGGGSGGGGSGGGGSEVQLVESGGSLVQPGGSLRLSCAASGFTFDDYAMSWVRQVPGKGLEWVSSINWSGTHTDYADSVKGRFTISRNNANNTLYLQMNSLKSEDTAVYYCAKNWRDAGTTWFEKSGSAGQGTQVTVSS
notes: as for B1
B5: the off-rate constant (koff) in [1] was approximately 0.0001 s⁻¹.

B6: 2C3 (VHH)
VHH: EVQLVESGGGLVQPGGSLRLSCVASGFSLDDYGMTWVRQAPGKGLEWVSSINWSGTHTDYADSVKGRFTISRDNAKNTLFLQMNSLRSEDTAVYYCNQGWKIVPTDRTGHGTQVTVSS
notes: C-term myc-His6 tag
On to B6, for which the “inhibition of SKBR3 cell proliferation” value in assay [2] is approximately 30%. The off-rate (koff) in [3] was 0.00111 s⁻¹.

B7: DUMMY-35GS-2D3 (bispecific antibody)
chain: EVQLVESGGGLVQAGGSLRLSCAASGRTFRSYPMGWFRQAPGKEREFVASITGSGGSTYYADSVKGRFTISRDNAKNTVYLQMNSLRPEDTAVYSCAAYIRPDTYLSRDYRKYDYWGQGTQVTVSSGGGGSGGGGSGGGGSGGGGSGGGGSGGGGSGGGGSEVQLVESGGSLVQPGGSLRLSCAASGFTFDDYAMSWVRQVPGKGLEWVSSINWSGTHTDYADSVKGRFTISRNNANNTLYLQMNSLKSEDTAVYYCAKNWRDAGTTWFEKSGSAGQGTQVTVSS
notes: C-term myc-His6 tag; also called dummy-2D3; Dummy-2D3
With B7, in [4], the equilibrium dissociation constant (Kd) came to 1.77 nM, the koff came out at 0.00113 s⁻¹ and the kon was 1.16e+06 M⁻¹ s⁻¹. The koff in [1] was approximately 0.001 s⁻¹.

B8: 27H5-35GS-2D3 (bispecific antibody)
chain: EVQLVESGGGLVQAGGSLRLSCAASGFTFDDYGIGWFRQASGKEREGVSCITSSDGSTYYADSVKGRFTISSDNAKNTVYLQMNSLKPEDTAVYYCAALPFVCPSGSYSDYGDEYDYWGQGTQVTVSSGGGGSGGGGSGGGGSGGGGSGGGGSGGGGSGGGGSEVQLVESGGSLVQPGGSLRLSCAASGFTFDDYAMSWVRQVPGKGLEWVSSINWSGTHTDYADSVKGRFTISRNNANNTLYLQMNSLKSEDTAVYYCAKNWRDAGTTWFEKSGSAGQGTQVTVSS
notes: as for B1
In the case of B8, the off-rate constant (koff) in [1] is approximately 0.001 s⁻¹.

B9: 2D3-35GS-47D5 (bispecific antibody)
chain: EVQLVESGGSLVQPGGSLRLSCAASGFTFDDYAMSWVRQVPGKGLEWVSSINWSGTHTDYADSVKGRFTISRNNANNTLYLQMNSLKSEDTAVYYCAKNWRDAGTTWFEKSGSAGQGTQVTVSSGGGGSGGGGSGGGGSGGGGSGGGGSGGGGSGGGGSEVQLVESGGGLVQPGGSLRLSCAASGSIFGFNDMAWYRQAPGKQRELVALISRVGVTSSADSVKGRFTISRVNAKDTVYLQMNSLKPEDTAVYYCYMDQRLDGSTLAYWGQGTQVTVSS
notes: biparatopic Nanobody; C-term myc-His6 tag; also called 2D3-47D5
In the case of B9, the “fold lower koff than on each of the 2D3 and 47D5 surfaces” value in [7] came out at 25 fold. Moreover, the koff in assay [5] was determined as 8.07e-05 s⁻¹; in [6] it was 5.45e-05 s⁻¹.

B10: 2C5 (VHH)
VHH: EVQLVESGGGLVQAGGSLNLSCVASGIPFSTRTMAWYRQTPGKSRDWVATIRSGTPVYADSVKGRFTVSRDNAKNTLYLRMNSLKSEDSATYTCRAVNADIWGQGTQVTVSS
notes: C-term myc-His6 tag
Regarding B10, the binding result in assay [8] and in assay [9] was “binds” each time.

B11: 27E7-35GS-2D3 (bispecific antibody)
chain: EVQLVESGGGLVQAGGSLRLSCAASGITFRRYDMGWYRQFPGKERELVATILSEGDTNYVDPVKGRFTISRDNAKNTVYLQMNDLKPEDTAVYYCNGVWRAIGRTYWGQGTQVTVSSGGGGSGGGGSGGGGSGGGGSGGGGSGGGGSGGGGSEVQLVESGGSLVQPGGSLRLSCAASGFTFDDYAMSWVRQVPGKGLEWVSSINWSGTHTDYADSVKGRFTISRNNANNTLYLQMNSLKSEDTAVYYCAKNWRDAGTTWFEKSGSAGQGTQVTVSS
notes: as for B1
On to B11, for which the dissociation rate constant (koff) in assay [1] was approximately 0.0001 s⁻¹.

B12: 2A1 (VHH)
VHH: EVQLVESGGGLVQAGGSLRLSCVASKITFRRYIMDWYRQAPGKQRELVASINSDGSTGYTDSVKGRFTISRDNTKNTLDLQMNSLKPEDTAVYYCHGRWLEIGAEYWGQGTQVTVSS
notes: C-term myc-His6 tag
For the molecule B12, the binding result in assay [8] and in assay [9] was “binds” in each case.

B13: 47D5 (VHH)
VHH: KVQLVESGGGLVQPGGSLRLSCAASGSIFGFNDMAWYRQAPGKQRELVALISRVGVTSSADSVKGRFTISRVNAKDTVYLQMNSLKPEDTAVYYCYMDQRLDGSTLAYWGQGTQVTVSS
notes: C-term myc-His6 tag; also called 47A8; 47A11
In the case of B13, in [4], the equilibrium dissociation constant (Kd) was found to be 2.23 nM, the koff was determined as 0.000862 s⁻¹ and the kon was 386000 M⁻¹ s⁻¹. Moreover, the off-rate constant (koff) in assay [10] came out at 0.00256 s⁻¹. Further, in [11], the koff turned out to be 0.00131 s⁻¹.

B14: 2G4 (VHH)
VHH: EVQLVESGGGLVQAGGSLRLSCAASGNIFSHNAMGWYRQAPGKQRELVTYITINGIANYVDSVKGRFTISRDNTKNTMYLQMVSLKPEDTAVYYCNVGGREYSGVYYYREYWGQGTQVTVSS
notes: C-term myc-His6 tag
Turning to B14, the binding result in assay [8] and in assay [9] was “binds” in each case.

B15: 27C3-35GS-2D3 (bispecific antibody)
chain: EVQLVESGGGLVQPGGSLRLSCAASGFTFDDYATSWVRQAPGKGPEWVSAINSGGGSTYYADSVKGRFTISRDNAKNTLYLQMNSLKPEDTAVYYCARPRGSSLYLLEYDYWGQGTQVTVSSGGGGSGGGGSGGGGSGGGGSGGGGSGGGGSGGGGSEVQLVESGGSLVQPGGSLRLSCAASGFTFDDYAMSWVRQVPGKGLEWVSSINWSGTHTDYADSVKGRFTISRNNANNTLYLQMNSLKSEDTAVYYCAKNWRDAGTTWFEKSGSAGQGTQVTVSS
notes: as for B1
Take B15: the koff in assay [1] was approximately 0.001 s⁻¹.
